Assay results from patent US20180009889A1 (Novartis, published 2018).
Changes are numbered by the printed parent chain.

Tests used:
Human Notch3-Gal4-VP16 [1] = target: Human Notch3-Gal4-VP16 (human); assay: cell-based or functional assay
EGF32 NRR (human) [2] = assay: Biacore (SPR); set-up not stated on the sheet
EGF32 NRR (cyno) [3] = target: T1, EGF32 NRR (cyno) (cynomolgus monkey); assay: Biacore (SPR); set-up not stated on the sheet
T1 construct: recombinant, C-terminal six histidine tag

EGF32 NRR (mouse) [4] = target: T2, EGF32 NRR (mouse) (mouse, UniProt Q61982); assay: Biacore (SPR); set-up not stated on the sheet
T2 construct: recombinant, C-terminal six histidine tag

EGF32 NRR (human) [5] = assay: ELISA: IgG titrated on directly coated recombinant antigen
EGF32 NRR (cyno) [6] = target: T1, EGF32 NRR (cyno); assay: as above
EGF32 NRR (mouse) [7] = target: T2, EGF32 NRR (mouse); assay: as above
[8] = target: T3, Human Notch 3 (wild type) (human, UniProt Q9UM47 40-2321); assay: FACS on U2OS_N3 cells, with U2OS_parental cells as control
T3 construct: also called Notch 3 receptor

EGF32 NRR (cyno) [9] = target: T1, EGF32 NRR (cyno); assay: ELISA: IgG titrated on directly coated recombinant antigen; remark: listed apart in the source
[10] = target: T4, Human Notch3 Negative Regulatory Region (NRR), residues 1378 to 1640 of human Notch3, with C-terminal His tag (human, UniProt Q9UM47 1378-1640); assay: HDx-MS without Ca2+, IgG with Notch 3 NRR
T4 construct: also called Notch3 NRR; Notch 3 NRR

[11] = target: T5, ICD3 of MDA-MB468 cells (frame-shift mutation at amino acid 2034, premature stop) (human); assay: Western blot of MDA-MB468 cell lysates
T5 construct: also called smaller ICD3; faster migrating ICD3
T5 chain: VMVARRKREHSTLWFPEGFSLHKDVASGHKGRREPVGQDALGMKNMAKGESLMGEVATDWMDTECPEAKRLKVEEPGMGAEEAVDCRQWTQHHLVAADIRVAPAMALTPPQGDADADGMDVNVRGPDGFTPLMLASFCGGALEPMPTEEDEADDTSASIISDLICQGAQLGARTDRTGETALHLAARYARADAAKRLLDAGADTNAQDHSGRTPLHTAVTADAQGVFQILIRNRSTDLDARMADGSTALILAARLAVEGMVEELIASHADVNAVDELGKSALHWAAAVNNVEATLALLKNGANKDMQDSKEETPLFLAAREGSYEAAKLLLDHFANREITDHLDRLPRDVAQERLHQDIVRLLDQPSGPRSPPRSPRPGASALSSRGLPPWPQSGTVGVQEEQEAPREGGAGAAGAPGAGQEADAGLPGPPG

[12] = target: T6, Notch1 intracellular domain (ICD1) (UniProt P46531 1754-2555); assay: Western blot of lysates of T-cell acute lymphoblastic leukemia cell lines
T6 construct: domain: Notch1 intracellular domain (ICD1)
T6 sequence (P46531 1754-2555 limits assumed): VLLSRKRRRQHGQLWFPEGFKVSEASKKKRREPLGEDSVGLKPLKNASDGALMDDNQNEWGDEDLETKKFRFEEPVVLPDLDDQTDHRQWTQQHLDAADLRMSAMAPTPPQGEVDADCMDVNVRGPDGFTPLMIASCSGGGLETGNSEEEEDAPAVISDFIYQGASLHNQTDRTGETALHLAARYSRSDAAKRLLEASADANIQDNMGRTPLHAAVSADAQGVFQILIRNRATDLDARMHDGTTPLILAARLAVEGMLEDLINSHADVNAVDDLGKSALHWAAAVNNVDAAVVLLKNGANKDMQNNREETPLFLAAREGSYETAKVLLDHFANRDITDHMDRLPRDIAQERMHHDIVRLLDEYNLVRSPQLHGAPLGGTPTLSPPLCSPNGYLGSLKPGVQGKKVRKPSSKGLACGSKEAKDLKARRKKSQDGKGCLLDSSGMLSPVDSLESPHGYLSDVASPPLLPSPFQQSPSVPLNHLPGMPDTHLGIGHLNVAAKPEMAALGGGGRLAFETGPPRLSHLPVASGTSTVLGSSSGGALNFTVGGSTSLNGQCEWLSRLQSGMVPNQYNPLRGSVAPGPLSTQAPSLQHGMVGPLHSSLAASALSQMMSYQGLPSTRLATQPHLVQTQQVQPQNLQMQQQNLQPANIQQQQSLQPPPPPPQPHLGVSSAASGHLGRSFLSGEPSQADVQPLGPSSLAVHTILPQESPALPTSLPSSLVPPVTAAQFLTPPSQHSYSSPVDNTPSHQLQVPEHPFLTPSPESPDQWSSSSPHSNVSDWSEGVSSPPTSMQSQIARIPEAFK

[13] = target: T7, Gamma secretase cleaved form of the Notch3 intracellular domain (ICD3) (human, UniProt Q9UM47 1662-2321); assay: Western blot of TALL-1 cell lysates with hybridoma sub-clone supernatant
T7 construct: also called Notch3 ICD
T7 sequence: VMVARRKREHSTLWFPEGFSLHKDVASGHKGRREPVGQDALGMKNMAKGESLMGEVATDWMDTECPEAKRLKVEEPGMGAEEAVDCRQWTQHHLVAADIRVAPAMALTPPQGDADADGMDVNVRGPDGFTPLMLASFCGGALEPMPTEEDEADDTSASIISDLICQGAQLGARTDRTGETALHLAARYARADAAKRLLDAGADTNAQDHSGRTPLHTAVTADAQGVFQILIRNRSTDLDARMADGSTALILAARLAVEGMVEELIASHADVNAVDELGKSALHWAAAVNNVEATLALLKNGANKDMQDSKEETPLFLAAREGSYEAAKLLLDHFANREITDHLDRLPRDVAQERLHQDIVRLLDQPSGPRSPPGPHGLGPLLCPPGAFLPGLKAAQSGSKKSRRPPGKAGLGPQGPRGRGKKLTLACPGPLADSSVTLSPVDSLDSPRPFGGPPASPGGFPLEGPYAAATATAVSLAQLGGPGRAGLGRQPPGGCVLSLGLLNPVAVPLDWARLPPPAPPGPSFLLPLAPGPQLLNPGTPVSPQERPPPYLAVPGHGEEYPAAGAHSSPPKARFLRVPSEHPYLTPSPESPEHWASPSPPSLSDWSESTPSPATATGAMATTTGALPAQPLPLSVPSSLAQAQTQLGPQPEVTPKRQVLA

Human Notch3-Gal4-VP16 [14] = target: Human Notch3-Gal4-VP16 (human); assay: cell-based or functional assay; remark: listed apart in the source
Human Notch3-Gal4-VP16 [15] = target: Human Notch3-Gal4-VP16 (human); assay: cell-based or functional assay; remark: listed apart in the source
cyno LBD [16] = target: T8, cyno LBD; assay: Biacore (SPR); set-up not stated on the sheet
T8 construct: also called N3_EGF4-11_Fc cyno

[17] = target: T3, Human Notch 3 (wild type); assay: FACS on U2OS_N3 cells (U2OS over-expressing human Notch3)
cyno LBD [18] = target: T8, cyno LBD; assay: ELISA: IgG titrated on directly coated recombinant antigen
cyno LBD [19] = target: T8, cyno LBD; assay: as above; remark: listed apart in the source

B1: 12215 (antibody, human IgG1, kappa, V domains shown)
VH: QVQLVESGGGLVKPGGSLRLSCAASGFTFSTYVMHWVRQAPGKGLEWVGRIRSNTYGGITDYAAPVKGRFTISRDDSKNTLYLQMNSLKTEDTAVYYCARAEARYRDVWGQGTLVTVSS
VL: DIQMTQSPSSLSASVGDRVTITCRASQSISSHLNWYQQKPGKAPKLLIYAASNLQSGVPSRFSGSGSGTDFTLTISSLQPEDFATYYCQQDYHTPFTFGQGTKVEIKR
notes: also called MOR 12215
In the case of B1, the “% inhibition, Delta 1 co-culture Notch3 reporter gene assay” value (Human Notch3-Gal4-VP16 [1]) is reported as -1%, the “% inhibition, Jagged1 co-culture Notch3 reporter gene assay” value (Human Notch3-Gal4-VP16 [1]) is reported as -5% and the Kd (EGF32 NRR (human) [2]) is reported as 0.9 nM. It also gave a Kd (EGF32 NRR (cyno) [3]) of 2.7 nM, a Kd (EGF32 NRR (mouse) [4]) of 1 nM and an EC50 (EGF32 NRR (human) [5]) of 0.9 nM. For the same binder, the EC50 (EGF32 NRR (cyno) [6]) was 0.6 nM, the EC50 (EGF32 NRR (mouse) [7]) was 2.2 nM and the “EC50 (read off the curve)” value [8] was about 0.5 nM.

B2: 20358 (antibody, human IgG1, kappa, V domains shown)
VH: QVQLVQSGAEVKKPGSSVKVSCKASGGTFRTYAMHWVRQAPGQGLEWMGGIVPYHGITDYAQKFQGRVTITADESTSTAYMELSSLRSEDTAVYYCARDDYSTYAFAYWGQGTLVTVSS
VL: B1 VL with S30A, H32Y, N34A, A50D, D91A, H93K, F96Y
With B2 the Kd (EGF32 NRR (cyno) [3]) was 2.7 nM, the Kd (EGF32 NRR (mouse) [4]) was 70 nM and the EC50 (EGF32 NRR (cyno) [6]) was 0.5 nM.

B3: 12981 (antibody, human IgG1, kappa, V domains shown)
VH: B2 VH with V52I, Y54I, H55F, T58A, D59N
VL: B1 VL with S30A, H32Y, N34A, A50D, D91A, H93K, F96Y
notes: also called MOR 12981
With B3 the “% inhibition, Delta 1 co-culture Notch3 reporter gene assay” value (Human Notch3-Gal4-VP16 [1]) was 16%, the “% inhibition, Jagged1 co-culture Notch3 reporter gene assay” value (Human Notch3-Gal4-VP16 [1]) was 56% and the “IC50, Delta 1 co-culture Notch3 reporter gene assay” value (Human Notch3-Gal4-VP16 [1]) was 22 nM. For the same binder, the “IC50, Jagged1 co-culture Notch3 reporter gene assay” value (Human Notch3-Gal4-VP16 [1]) was 0.2 nM, the Kd (EGF32 NRR (cyno) [3]) was 19 nM and the EC50 (EGF32 NRR (cyno) [6]) was 0.4 nM. For the same binder, the “EC50 (read off the curve)” value (EGF32 NRR (cyno) [9]) was about 0.6 nM.

B4: 20337 (antibody, human IgG1, kappa, V domains shown)
VH: B1 VH with S53A, T55A, I59A, T60A
VL: B1 VL
With B4 the “% inhibition, Delta 1 co-culture Notch3 reporter gene assay” value (Human Notch3-Gal4-VP16 [1]) was 18%, the “% inhibition, Jagged1 co-culture Notch3 reporter gene assay” value (Human Notch3-Gal4-VP16 [1]) was 60% and the “IC50, Delta 1 co-culture Notch3 reporter gene assay” value (Human Notch3-Gal4-VP16 [1]) was 6.4 nM. The “IC50, Jagged1 co-culture Notch3 reporter gene assay” value (Human Notch3-Gal4-VP16 [1]) was 4.6 nM, the binding result [10] was “binds” and the Kd (EGF32 NRR (human) [2]) was 0.5 nM. The Kd (EGF32 NRR (cyno) [3]) was 0.4 nM, the Kd (EGF32 NRR (mouse) [4]) was 4.4 nM and the EC50 (EGF32 NRR (human) [5]) was 0.8 nM. It also gave an EC50 (EGF32 NRR (cyno) [6]) of 0.6 nM and an EC50 (EGF32 NRR (mouse) [7]) of 0.7 nM.

B5: ICD3 Ab (antibody, V domains shown)
VH: QSLEESGGDLVKPGASLTLTCTASGFSFTKNAYMCWDRQAPGKRPEWIACIETGDGTTYYASWAKGRFTVSKTSSTTVTLQMTSLTAADTATYFCARELYDDYGDYFNLWGPGTLVTVSS
VL: ALVMTQTPSSVSAAVGGTVTINCQTSENFYSNDILSWYQQKPGQPPKLLIYEASTLASGVPSRFKGSGSGTQFTLTISDVQCDDAATYYCQGSVLDSGWYDISFGGGTEVVVKG
notes: also called ICD3 antibody
B5: binds [11]; no binding (tested: 1:5000 dilution) [12]; binds [13].

B6: 20345 (antibody, human IgG1, kappa, V domains shown)
VH: QVQLVQSGAEVKKPGSSVKVSCKASGGTFSSYTISWVRQAPGQGLEWMGWIKPKLGMAHYAQKFQGRVTITADESTSTAYMELSSLRSEDTAVYYCARGSFWFGYWGQGTLVTVSS
VL: DIQMTQSPSSLSASVGDRVTITCRASQGINNYLNWYQQKPGKAPKLLIYDASKLQSGVPSRFSGSGSGTDFTLTISSLQPEDFATYYCQQYLQYPMTFGQGTKVEIKR
With B6 the “% inhibition, Delta 1 co-culture Notch3 reporter gene assay” value (Human Notch3-Gal4-VP16 [1]) was 19%, the “% inhibition, Jagged1 co-culture Notch3 reporter gene assay” value (Human Notch3-Gal4-VP16 [1]) was -88% and the “IC50, Delta 1 co-culture Notch3 reporter gene assay” value (Human Notch3-Gal4-VP16 [1]) was 0.3 nM. The “IC50, Jagged1 co-culture Notch3 reporter gene assay” value (Human Notch3-Gal4-VP16 [1]) was 0.4 nM, the Kd (EGF32 NRR (cyno) [3]) was 0.7 nM and the EC50 (EGF32 NRR (cyno) [6]) was 0.6 nM.

B7: 20350 (antibody, human IgG1, kappa, V domains shown)
VH: B6 VH with K54R, L55W, M57A
VL: B6 VL
In the case of B7, the Kd (EGF32 NRR (cyno) [3]) is reported as 0.3 nM and the EC50 (EGF32 NRR (cyno) [6]) is reported as 1.4 nM.

B8: 20351 (antibody, human IgG1, kappa, V domains shown)
VH: B6 VH with K54R, L55Y, M57A, H59M
VL: B6 VL
In the case of B8, the “% inhibition, Delta 1 co-culture Notch3 reporter gene assay” value (Human Notch3-Gal4-VP16 [1]) is reported as 30%, the “% inhibition, Jagged1 co-culture Notch3 reporter gene assay” value (Human Notch3-Gal4-VP16 [1]) is reported as -50% and the “IC50, Delta 1 co-culture Notch3 reporter gene assay” value (Human Notch3-Gal4-VP16 [1]) is reported as 1.4 nM. The “IC50, Jagged1 co-culture Notch3 reporter gene assay” value (Human Notch3-Gal4-VP16 [1]) was 0.8 nM, the Kd (EGF32 NRR (cyno) [3]) was 1.2 nM and the EC50 (EGF32 NRR (cyno) [6]) was 0.8 nM.

B9: 12225 (antibody, human IgG1, kappa, V domains shown)
VH: B6 VH with K54A, L55F, M57T, H59N
VL: B6 VL
notes: also called MOR 12225
In the case of B9, the “% inhibition, Delta 1 co-culture Notch3 reporter gene assay” value (Human Notch3-Gal4-VP16 [1]) is reported as -8%, the “% inhibition, Jagged1 co-culture Notch3 reporter gene assay” value (Human Notch3-Gal4-VP16 [1]) is reported as -165% and the “IC50, Jagged1 co-culture Notch3 reporter gene assay” value (Human Notch3-Gal4-VP16 [1]) is reported as 5.8 nM. For the same binder, the Kd (EGF32 NRR (cyno) [3]) was 2.7 nM and the EC50 (EGF32 NRR (cyno) [6]) was 0.9 nM.

B10: 12229 (antibody, human IgG1, lambda, V domains shown)
VH: QVQLVESGGGLVKPGGSLRLSCAASGFTFSSYTMNWVRQAPGKGLEWVGRIKTKTNGGTTDYAAPVKGRFTISRDDSKNTLYLQMNSLKTEDTAVYYCARERSRAGSIFDPWGQGTLVTVSS
VL: DIVLTQPPSVSGAPGQRVTISCSGSSSNIGFNYVSWYQQLPGTAPKLLIYYNNQRPSGVPDRFSGSKSGTSASLAITGLQAEDEADYYCSTWTGTSESHVFGGGTKLTVLG
B10 was tested, and the “% inhibition, Delta 1 co-culture Notch3 reporter gene assay” value (Human Notch3-Gal4-VP16 [1]) was 85%, the “% inhibition, Jagged1 co-culture Notch3 reporter gene assay” value (Human Notch3-Gal4-VP16 [1]) was 77% and the “IC50, Delta 1 co-culture Notch3 reporter gene assay” value (Human Notch3-Gal4-VP16 [1]) was 5.5 nM. For the same binder, the “IC50, Jagged1 co-culture Notch3 reporter gene assay” value (Human Notch3-Gal4-VP16 [1]) was 0.7 nM, the “IC50 (read off the curve), Delta1 co-culture reporter gene assay” value (Human Notch3-Gal4-VP16 [14]) was about 5 nM and the “IC50 (read off the curve), Jagged1 co-culture reporter gene assay” value (Human Notch3-Gal4-VP16 [15]) was about 0.8 nM. The Kd (cyno LBD [16]) was 24 nM, the binding result [17] was “binds” and the EC50 (cyno LBD [18]) was 0.5 nM. The “EC50 (read off the curve)” value (cyno LBD [19]) was about 0.3 nM.
